Measurements taken from patent US20100239597A1.
Where a chain is given by its changes, count along the chain named. One block for each binder: values may come before it.

Assays:
[1] = target: biotinylated ADDL (bADDL) (UniProt P05067); experiment: BIACORE, bADDL as antigen; IgG1#1
[2] = target: biotin-Aβ1-20 (UniProt P05067); experiment: BIACORE, biotin-Aβ1-20 as antigen; IgG1#1
[3] = target: biotin-Aβ1-20 (UniProt P05067); experiment: BIACORE, biotin-Aβ1-20 as antigen; IgG1#2
[4] = target: biotinylated ADDL (bADDL) (UniProt P05067); experiment: BIACORE, bADDL as antigen; IgG1#2

Kd [1]: 0.053 nM
Kd [2]: 0.053 nM
B1: 20C2-6B IgG1 (antibody, V domains shown)
VH: QVTLKESGPALVKPTQTLTLTCTLSGFSLSTSGMGVGWIRQPPGKALEWLAHIWWDDDKSYNPSLKSRLTISKDTSKNQVVLTMTNMDPVDTATYYCARRQLGLRSIDAMDYWGQGTTVTVSS
VL: DVVMTQSPLSLPVTPGEPASISCRSSQSILHSNGNTYLEWYLQKPGQSPQLLIYKVSNRFSGVPDRFSGSGSGTDFTLKISRVEAEDVGVYYCFQSSRVPLTFGQGTKLEIK

Kd [3]: 0.064 nM
Kd [1]: 0.013 nM
Kd [2]: 0.046 nM
Kd [4]: 0.0008 nM
B2: 20C2-8B IgG1 (antibody, V domains shown)
VH: B1 VH
VL: B1 VL with F94L, S96T, S97T
